{
  "source": "patent US20240068024",
  "about": "“NUCLEIC ACID FRAGMENT AND USE THEREOF” (KYUSHU UNIVERSITY, NATIONAL UNIVERSITY CORPORATION, published 2024)",
  "key": {"Tn5 transposase": {"target": "Tn5 transposase (UniProt Q46731 Q46731:1-476)", "sequence (Q46731 whole entry, one chain of several)": "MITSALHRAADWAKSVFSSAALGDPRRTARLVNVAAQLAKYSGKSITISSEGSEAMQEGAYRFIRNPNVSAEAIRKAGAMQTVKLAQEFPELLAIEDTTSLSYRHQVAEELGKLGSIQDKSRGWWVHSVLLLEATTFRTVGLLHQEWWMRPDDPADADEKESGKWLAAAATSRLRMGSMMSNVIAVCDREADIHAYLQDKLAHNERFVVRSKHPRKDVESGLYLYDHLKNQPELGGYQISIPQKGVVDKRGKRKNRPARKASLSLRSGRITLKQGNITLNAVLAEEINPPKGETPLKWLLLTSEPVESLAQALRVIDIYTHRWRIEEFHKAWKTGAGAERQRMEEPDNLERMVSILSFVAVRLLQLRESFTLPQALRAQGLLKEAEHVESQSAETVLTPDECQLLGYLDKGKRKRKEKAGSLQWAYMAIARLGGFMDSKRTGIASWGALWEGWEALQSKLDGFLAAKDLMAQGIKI", "assay": "in situ transposition, 5 mM MgCl2, TAPS-DMF pH 8.5, 37 C; library band 200-400 bp", "conditions": "chain copies: 2 (stated, dimer)", "description": "PBS was removed, 100 μL of a Tn5 solution (150 ng/well in 1×Tn5 dialysis buffer) was added thereto, and the mixture was allowed to stand at room temperature for 1 hour. The composition of the 1×Tn5 dialysis buffer was formed of 50 mM HEPES-KOH (pH 7.2), 0.1 M NaCl, 0.1 mM EDTA, 1 mM DTT, 0.1% Triton X-100, and 10% glycerol. As a result, the transposase was bound to the transposase binding sequence of the double-stranded nucleic acid fragment of each ChIL probe.\nSubsequently, the 1×Tn5 dialysis buffer was removed, […] of a 1×TAPS-DMF buffer (10 mM TAPS-NaOH (pH 8.5), 5 mM MgCl₂, 10% N,N-dimethylformamide) was added thereto, and the mixture was allowed to stand at 37° C. for 1 hour. With this, the transposase bound to the double-stranded nucleic acid fragment of the ChIL probe was activated, and the double-stranded nucleic acid fragment of the ChIL probe was inserted in the vicinity of the binding region of the lysine 27 acetylation modified histone H3 on the genomic DNA."}, "T7 RNA polymerase": {"target": "T7 RNA polymerase (UniProt P00573 P00573:1-883)", "sequence (P00573 whole entry, one chain of several)": "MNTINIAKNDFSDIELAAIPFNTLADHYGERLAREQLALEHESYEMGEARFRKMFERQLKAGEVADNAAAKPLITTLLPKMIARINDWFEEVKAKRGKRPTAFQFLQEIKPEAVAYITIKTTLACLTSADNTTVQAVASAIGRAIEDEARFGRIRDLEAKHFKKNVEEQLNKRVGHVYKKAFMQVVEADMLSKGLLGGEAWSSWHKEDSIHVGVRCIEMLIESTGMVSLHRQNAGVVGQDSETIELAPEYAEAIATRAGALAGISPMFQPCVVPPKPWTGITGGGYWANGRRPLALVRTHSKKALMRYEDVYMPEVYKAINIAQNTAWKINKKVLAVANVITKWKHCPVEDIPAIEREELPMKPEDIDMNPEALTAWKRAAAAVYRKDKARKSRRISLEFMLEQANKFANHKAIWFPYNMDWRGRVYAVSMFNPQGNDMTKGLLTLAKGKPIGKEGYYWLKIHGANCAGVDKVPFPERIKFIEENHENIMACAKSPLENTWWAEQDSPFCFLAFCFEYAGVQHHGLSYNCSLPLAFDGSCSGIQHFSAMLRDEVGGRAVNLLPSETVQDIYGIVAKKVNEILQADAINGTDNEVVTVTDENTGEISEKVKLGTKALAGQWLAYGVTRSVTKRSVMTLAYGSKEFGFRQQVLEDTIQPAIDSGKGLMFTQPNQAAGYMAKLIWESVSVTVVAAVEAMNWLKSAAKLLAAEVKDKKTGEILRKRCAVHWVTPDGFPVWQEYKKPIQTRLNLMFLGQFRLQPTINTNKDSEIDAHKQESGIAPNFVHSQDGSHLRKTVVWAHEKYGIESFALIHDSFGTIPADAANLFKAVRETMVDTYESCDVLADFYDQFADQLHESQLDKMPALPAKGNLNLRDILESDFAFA", "assay": "in situ transcription after Tn5 insertion in mouse liver section, library band 200-400 bp; 37 C overnight; no UV needed"}},
  "data": [
    {"binder": "control ChIL probe (original) (dsDNA, 5'-azide on SEQ 1 (click-linked to DBCO-PEG5 anti-mouse IgG); 5'-phosphate on SEQ 2) DNA 1: CCCATGCATTAATACGACTCACTATAGGGTAGATCGCTCGTCGGCAGCGTCAGATGTGTATAAGAGACAG DNA 2: CTGTCTCTTATACACATCTGACGCTGCCGACGAGCGATCTACCCTATAGTGAGTCGTATTAATGCATGGG", "values": [
      {"measurement": "binding result", "setting": "Tn5 transposase", "result": "binds"},
      {"measurement": "binding result", "setting": "T7 RNA polymerase", "result": "binds"}
    ]}
  ]
}
